FireProtDB (doi:10.1021/bi972394l)
Where “and” joins values, the source holds several entries; their conditions need not be identical. Equal values may be shown once.

B1: Superoxide dismutase [Mn], mitochondrial, P04179 (parent)
chain: MLSRAVCGTSRQLAPVLGYLGSRQKHSLPDLPYDYGALEPHINAQIMQLHHSKHHAAYVNNLNVTEEKYQEALAKGDVTAQIALQPALKFNGGGHINHSIFWTNLSPNGGGEPKGELLEAIKRDFGSFDKFKEKLTAASVGVQGSGWGWLGFNKERGHLQIAACPNQDPLQGTTGLIPLLGIDVWEHAYYLQYKNVRPDYLKAIWNVINWENVTERYMACKK

Variants of: B1
Conditions: Homo sapiens; pH 7.8; 88.9 °C; Thermal; DSC; potassium phosphate 2 mM; transition: 2; reversible: Yes; structure 1N0J; whole UniProt chain shown

Row | Variant | ddG of mutation (higher = less stable) [kcal/mol]
1 | MLSRAVCGTSRQLAPVLGYLGSRQKHSLPDLPYDYGALEPHINAQIMQLHHSKHHAAFVNNLNVTEEKYQEALAKGDVTAQIALQPALKFNGGGHINHSIFWTNLSPNGGGEPKGELLEAIKRDFGSFDKFKEKLTAASVGVQGSGWGWLGFNKERGHLQIAACPNQDPLQGTTGLIPLLGIDVWEHAYYLQYKNVRPDYLKAIWNVINWENVTERYMACKK [Y58F] | -3.1

Same assay, conditions: Homo sapiens; pH 7.8; Thermal; DSC; potassium phosphate 2 mM; transition: 2; reversible: Yes; structure 1N0J; whole UniProt chain shown

Row | Variant | unfolding enthalpy (calorimetric)
2 | MLSRAVCGTSRQLAPVLGYLGSRQKHSLPDLPYDYGALEPHINAQIMQLHHSKHHAAFVNNLNVTEEKYQEALAKGDVTAQIALQPALKFNGGGHINHSIFWTNLSPNGGGEPKGELLEAIKRDFGSFDKFKEKLTAASVGVQGSGWGWLGFNKERGHLQIAACPNQDPLQGTTGLIPLLGIDVWEHAYYLQYKNVRPDYLKAIWNVINWENVTERYMACKK [Y58F] | 351 kcal/mol and 197 kcal/mol
